US20130203609A1 (BOARD OF TRUSTEES OF NORTHERN ILLINOIS UNIVERSITY, published 2013)
Positions count from the first letter of the chain named. Values belong to the binder of their own block, whether it stands above or below them.

How the values were obtained:
[1] = biological target: T1, bovine pancreatic RNase A (bovine, UniProt P61823 27-150); assay: ITC, 25 C; no nickel
T1 construct: mature; Bought purified protein; The residue numbers K61 and T70, and the missing residues 16-22, fit the mature numbering; It was coated on plates in the ELISAs and biotinylated for the phage selections
T1 sequence (looked up): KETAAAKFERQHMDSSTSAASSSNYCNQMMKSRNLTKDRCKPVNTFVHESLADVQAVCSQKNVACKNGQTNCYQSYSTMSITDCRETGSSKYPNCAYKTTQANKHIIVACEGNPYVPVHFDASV
Protocol: (§1) The binding parameters (K, ΔH°, ΔS°, and n) were determined using the single site binding model using the ITC add-in in Origin version 7 (MicroCal LLC). All titrations indicated a 1:1 interaction with observed stoichiometries equal to 1.0 (within 5%).
(§2) ITC experiments were performed using a MicroCal VP-ITC (MicroCal, LLC, Northampton, Mass.). All experiments were performed at 25° C. Proteins were dialyzed against the desired experimental buffer, which included PBS (20 mM NaPhosphate, 150 mM NaCl pH 7.4), TBS (20 mM Tris-HCl, 150 mM NaCl pH 7.4) and TBS-E (20 mM Tris, 150 mM NaCl, 1 mM EDTA, pH 7.4). For direct titration of NiCl₂ into the VHHmetal variant, concentrations were 2 mM and 200 μM for NiCl₂ and VHH, respectively. Based on the observed binding constant, this corresponds to a “cvalue” of 6.7, which is within the commonly acceptable range for the accurate determination of binding thermodynamics (Tellinghuisen, 2008; Wiseman et al. 1989). For competitive titrations, nickel was included in TBS without EDTA at concentrations ranging from 0-10 mM. Competitive VHH/RNase A titration experiments with a “c” value greater than 10 included protein concentrations ranging from 30 μM to 205 μM. Conditions included a 10-fold higher concentration of titrant (VHH). […] These experiments included using a 100-fold higher concentration of titrant (RNase A) relative to VHH. RNase A concentrations were between 150 μM and 800 μM. Extinction coefficients were determined using values determined by the methods described by Pace, et. al. (1995). […] For nickel/VHH titrations, the titrant nickel was dissolved in the appropriate dialysis buffer at a 10× concentration of the VHH. Experiments typically included 27, 10 μL injections with a 240 second delay between each injection. Dilution titrations indicated the absence of significant heats of dilution, consequently, no background dilution heat subtractions were necessary. The binding parameters (K, ΔH°, ΔS°, and n) were determined using the single site binding model using the ITC add-in in Origin version 7 (MicroCal LLC).

[2] = biological target: T1, bovine pancreatic RNase A; assay: competitive phage ELISA with 1 mM metals: VHH phage, serially diluted soluble RNase A (the varied competitor), RNase A-coated wells [panel A]
Protocol: (§3) Competitive Phage ELISA: Competitive phage ELISA's were performed as described by DeLano and Cunningham (DeLano and Cunningham 2004). Briefly, the concentration of phage needed to produce a 60% saturation signal was determined by running a phage ELISA of serially diluted phage stocks. This fixed amount of phage was then added to serially diluted RNase A and incubated for one hour at room temperature. The well contents of that plate were then transferred to a washed and blocked RNase A coated Maxisorp microtiter plate and incubated 15 minutes at room temperature. The plates were then treated as described above to determine the […] absorbance. The IC50 values were then determined using Origin Labs using the following relationship: […]

[3] = biological target: T1, bovine pancreatic RNase A; assay: competitive phage ELISA without metals: VHH phage, serially diluted soluble RNase A (the varied competitor), RNase A-coated wells [panel A]
Protocol: as §3

[4] = biological target: T1, bovine pancreatic RNase A; assay: ITC, 25 C; RNase A binding with 1 mM nickel (competitive)
Protocol: as §1, §2

[5] = biological target: T1, bovine pancreatic RNase A; assay: ITC, 25 C; RNase A binding with 1 µM nickel (competitive)
Protocol: as §1, §2

[6] = biological target: T1, bovine pancreatic RNase A; assay: ITC, 25 C, pH 7.4; no nickel; ITC at 25° C., no nickel
Protocol: as §1
(§4) ITC experiments were performed using a MicroCal VP-ITC (MicroCal, LLC, Northampton, Mass.). All experiments were performed at 25° C. Proteins were dialyzed against the desired experimental buffer, which included PBS (20 mM NaPhosphate, 150 mM NaCl pH 7.4), TBS (20 mM Tris-HCl, 150 mM NaCl pH 7.4) and TBS-E (20 mM Tris, 150 mM NaCl, 1 mM EDTA, pH 7.4). For direct titration of NiCl₂ into the VHHmetal variant, concentrations were 2 mM and 200 μM for NiCl₂ and VHH, respectively. Based on the observed binding constant, this corresponds to a “cvalue” of 6.7, which is within the commonly acceptable range for the accurate determination of binding thermodynamics (Tellinghuisen, 2008; Wiseman et al. 1989). For competitive titrations, nickel was included in TBS without EDTA at concentrations ranging from 0-10 mM. […] Extinction coefficients were determined using values determined by the methods described by Pace, et. al. (1995). […] The binding parameters (K, ΔH°, ΔS°, and n) were determined using the single site binding model using the ITC add-in in Origin version 7 (MicroCal LLC).

[7] = biological target: T1, bovine pancreatic RNase A; assay: ITC, 25 C, no metal; reference is the wild-type anti-RNase A VHH
Protocol: as §1, §4

[8] = biological target: T1, bovine pancreatic RNase A; assay: ITC, 25 C; RNase A binding with 10 µM nickel (competitive)
Protocol: as §1, §2

[9] = biological target: T1, bovine pancreatic RNase A; assay: ITC, 25 C; RNase A binding with 100 µM nickel (competitive)
Protocol: as §1, §2

[10] = biological target: T1, bovine pancreatic RNase A; assay: competitive phage ELISA, soluble RNase A against coated RNase A, with and without 1 mM Zn2+/Co2+/Ni2+
[11] = biological target: T1, bovine pancreatic RNase A; assay: ITC, 25 C, pH 7.4; no nickel
Protocol: as §1, §2

[12] = biological target: T1, bovine pancreatic RNase A; assay: ITC, 25 C; RNase A binding with 10 mM nickel (competitive)
Protocol: as §1, §2

[13] = biological target: T1, bovine pancreatic RNase A; assay: ITC, 25 C, no metal
Protocol: ITC experiments were performed using a MicroCal VP-ITC (MicroCal, LLC, Northampton, Mass.). All experiments were performed at 25° C. Proteins were dialyzed against the desired experimental buffer, which included PBS (20 mM NaPhosphate, 150 mM NaCl pH 7.4), TBS (20 mM Tris-HCl, 150 mM NaCl pH 7.4) and TBS-E (20 mM Tris, 150 mM NaCl, 1 mM EDTA, pH 7.4). For direct titration of NiCl₂ into the VHH-metal variant, concentrations were 2 mM and 200 μM for NiCl2 and VHH, respectively. Based on the observed binding constant, this corresponds to a “c-value” of 6.7, which is within the commonly acceptable range for the accurate determination of binding thermodynamics. For competitive titrations, nickel was included in TBS without EDTA at concentrations ranging from 0-10 mM. Competitive VHH/RNase A titration experiments with a “c” value greater than 10 included protein concentrations ranging from 30 μM to 205 μM. Conditions included a 10-fold higher concentration of titrant (VHH). […] These experiments included using a 100-fold higher concentration of titrant (RNase A) relative to VHH. RNase A concentrations were between 150 μM and 800 μM. […] The binding parameters (K, ΔH°, ΔS°, and n) were determined using the single site binding model using the ITC add-in in Origin version 7 (MicroCal LLC). […]

- -TΔS° [1]: 1.9 kcal/mol
- Kd [1]: 19 nM
- N [1]: 1.01
- ΔG° [1]: -10.5 kcal/mol
- ΔH° [1]: -12.4 kcal/mol
- IC50 (read off the curve) [2]: ~1 nM
- IC50 (read off the curve) [3]: ~0.7 nM
- -TΔS° [4]: 0.9 kcal/mol
- Kd [4]: 16 nM
- N [4]: 0.994
- ΔG° [4]: -10.6 kcal/mol
- ΔH° [4]: -10.7 kcal/mol
B1: wild-type anti-RNase A VHH (cAb-RN05) (VHH)
VHH: QVQLVESGGGLVQAGGSLRLSCAASGYAYTYIYMGWFRQAPGKEREGVAAMDSGGGGTLYADSVKGRFTISRDKGKNTVYLQMDSLKPEDTATYYCAAGGYELRDRTYGQWGQGTQVTVSS
notes: Camelid single-domain antibody; also called VHH-wt; wt-VHH

- -TΔS° [5]: 8 kcal/mol
- Kd [5]: 160 nM
- N [5]: 0.959
- ΔG° [5]: -9.27 kcal/mol
- ΔH° [5]: -17.2 kcal/mol
- Kd [6]: 157 nM
- fold decrease in binding affinity against the wild-type VHH [7]: ~8 fold
- ΔΔG° against the wild-type VHH [7]: 1.2 kcal/mol
- -TΔS° [8]: 3.6 kcal/mol
- Kd [8]: 219 nM
- N [8]: 0.98
- ΔG° [8]: -9.1 kcal/mol
- ΔH° [8]: -12.7 kcal/mol
- IC50 (read off the curve) [3]: ~0.6 nM
- -TΔS° [9]: -1 kcal/mol
- Kd [9]: 900 nM
- N [9]: 0.98
- ΔG° [9]: -8.27 kcal/mol
- ΔH° [9]: -7 kcal/mol
- fold change in IC50 with and without 1 mM metals [10]: 1000 fold
- -TΔS° [11]: 9 kcal/mol
- N [11]: 0.96
- ΔG° [11]: -9.3 kcal/mol
- ΔH° [11]: -17.8 kcal/mol
- -TΔS° [12]: 1.3 kcal/mol
- Kd [12]: 34000 nM
- N [12]: 1
- ΔG° [12]: -6.07 kcal/mol
- ΔH° [12]: -7.3 kcal/mol
- Kd [13]: 155 nM
- -TΔS° [4]: 0.09 kcal/mol
- Kd [4]: 5640 nM
- N [4]: 1
- ΔG° [4]: -7.13 kcal/mol
- ΔH° [4]: -7.2 kcal/mol
B2: VHH-metal (metal sensitive anti-RNase A VHH) (VHH)
VHH: B1 VHH with A28P, Y29H, T30P, I32L, Y33H, E102Q, Q110H
notes: also called Metal-VHH
